Target: the molecule itself
Experiment: SEC-MALS

Protein | stoichiometry N
hSTIM1-WT EF-SAM domain (aa58 to 201) (domain or fragment) SEDEKLSFEAVRNIHKLMDDDANGDVDVEESDEFLREDLNYHDPTVKHSTFHGEDKLISVEDLWKAWKSSEVYNWTVDEVVQWLITYVELPQYEETFRKLQLSGHAMPRLAVTNTTMTGTVLKMTDRSHRQKLQLKALDTVLFG | ≥ 2
hSTIM1 EF-SAM domain (aa58 to 201) α9-mutant (V178A-L179A) (domain or fragment) SEDEKLSFEAVRNIHKLMDDDANGDVDVEESDEFLREDLNYHDPTVKHSTFHGEDKLISVEDLWKAWKSSEVYNWTVDEVVQWLITYVELPQYEETFRKLQLSGHAMPRLAVTNTTMTGTAAKMTDRSHRQKLQLKALDTVLFG | ≥ 2
